Results published in patent US20220169699A1 (published 2022).

B1: murine PD-1-transmembrane PD-1-CD28 fusion protein (PTM) (receptor)
chain: LEVPNGPWRSLTFYPAWLTVSEGANATFTCSLSNWSEDLMLNWNRLSPSNQTEKQAAFCNGLSQPVQDARFQIIQLPNRHDFHMNILDTRRNDSGIYLCGAISLHPKAKIEESPGAELVVTERILETSTRYPSPSPKPEGRFQGMVIGIMSALVGIPVLLLLAWALNSRRNRLLQSDYMNMTPRRPGLTRKPYQPYAPARDFAAYRP
notes: Expressed on retrovirally transduced primary murine T cells; The entry starts at PD-1 residue 1, so it includes the signal peptide; also called mPTM; PTM fusion protein

Tests used:
[1] = target: murine PD-1-transmembrane PD-1-CD28 fusion protein (PTM) (murine); assay: cell-based or functional assay
[2] = target: T1, recombinant murine PD-L1 Fc chimera (R&D Systems) (murine, UniProt Q9EP73 19-238); assay: flow cytometry; transduced murine T cells incubated with recombinant PD-L1-Fc
T1 construct: also called recombinant PD-L1; recombinant PD-L1-Fc; not shown: Fc part of the bought R&D Systems chimera (detected with anti-human IgG)
T1 sequence (Q9EP73 19-238, change not shown): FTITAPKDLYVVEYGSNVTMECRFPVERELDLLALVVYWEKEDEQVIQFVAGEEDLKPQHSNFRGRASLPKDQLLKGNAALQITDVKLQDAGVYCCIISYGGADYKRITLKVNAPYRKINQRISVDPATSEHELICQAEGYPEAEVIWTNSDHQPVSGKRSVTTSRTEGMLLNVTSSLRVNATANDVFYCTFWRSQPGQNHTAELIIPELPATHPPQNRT

Molecule | IFN-γ release in coculture of PTM-transduced OT-1 T cells with tumor cells [1] [ng/mL] | binding result [2]
full length murine PD-L1 on Panc02-OVA-PD-L1 tumor cells (from UniProt Q9EP73 19-290) (ligand) | 545 | –
B1 | – | binds
